Laboratory results taken from patent US20200262877A1, “ION CHANNEL-BINDING PEPTIDES AND METHODS OF USE THEREOF” (priority 2017, published 2020).
Values joined by “and” are separate entries in the source; they are usually repeats but may differ in a detail not shown here. Identical values can stand only once. Counter-ions that a name gives are not always drawn.

Experiments:
NR2A = target: T1, NR2A (Homo sapiens, UniProt Q12879); assay: Ion channel panel (IonWorks Barracuda): NR2A; type: cell-based; conditions: 100% = no change, <100% = inhibition
T1 construct: host or cells: HEK293 or CHO
Procedure: (§1) This example describes a method for assaying ion channel activity in cells.
(§2) Peptides were screened in duplicate at final concentrations of 20 μM and 200 nM, as determined by amino acid analysis, and diluted into HEPES buffered physiological saline (HBPS). HEK293 or CHO cells from the American Type Culture Collection (ATCC) were transfected with the appropriate ion channel before use. HEK293 cells were grown in Dulbecco's Modified Eagle Medium/Nutrient Mixture F-12, and CHO cells were cultured in Ham's F-12 media. All cultures were supplemented with 10% fetal bovine serum, 100 U/ml penicillin G, 100 μg/ml streptomycin sulfate, and the appropriate selection antibiotics. Prior to use, cells were washed twice with Hank's Balanced Salt Solution, and treated with Accutase cell detachment solution (Sigma-Aldrich). Cells were then washed. Peptides and controls were incubated with cells for at least five minutes.
(§3) Percent inhibition was defined as: (1-(Ipeptide/Icontrol))×100%).
(§4) Percent values were calculated using the following formula: % activation=(IPeptide/Icontrol)×100%, where IPeptide is the current produced by co-application a peptide with agonist, and Icontrol refers to the current produced by stimulation in control. Control used for each ion channel is the reference compound matched to a particular channel, as illustrated in TABLE 10 below.

NR2B = target: T2, NR2B (Homo sapiens, UniProt Q13224); assay: Ion channel panel (IonWorks Barracuda): NR2B; type: cell-based; conditions: 100% = no change, <100% = inhibition
T2 construct: host or cells: HEK293 or CHO
Procedure: as §1, §2, §3, §4

Nav1.7 = target: T3, Nav1.7 (Homo sapiens, UniProt Q15858); assay: cell-based; type: cell-based; conditions: for Activity of Nav1.7 with peptide, expressed as a percentage of the reference compound: peptide at 0.2 μM; for Activity of Nav1.7 with peptide, expressed as a percentage of the reference compound / Activity of Nav1.7 with peptide (percentage of the reference compound): 100% = no change; for Activity of Nav1.7 with peptide (percentage of the reference compound): peptide at 20 μM
T3 construct: host or cells: HEK293 or CHO
Procedure: as §1
as §2, with “Peptides were screened in duplicate at final concentrations of 20 μM and 200 nM, as determined by amino acid analysis, and diluted into HEPES buffered physiological saline (HBPS).” left out
as §3, §4

5HT3a = target: T4, 5HT3a (Homo sapiens, UniProt P46098); assay: Ion channel panel (IonWorks Barracuda): 5HT3a; type: cell-based
T4 construct: host or cells: HEK293 or CHO
T4 sequence (P46098 whole entry, looked up): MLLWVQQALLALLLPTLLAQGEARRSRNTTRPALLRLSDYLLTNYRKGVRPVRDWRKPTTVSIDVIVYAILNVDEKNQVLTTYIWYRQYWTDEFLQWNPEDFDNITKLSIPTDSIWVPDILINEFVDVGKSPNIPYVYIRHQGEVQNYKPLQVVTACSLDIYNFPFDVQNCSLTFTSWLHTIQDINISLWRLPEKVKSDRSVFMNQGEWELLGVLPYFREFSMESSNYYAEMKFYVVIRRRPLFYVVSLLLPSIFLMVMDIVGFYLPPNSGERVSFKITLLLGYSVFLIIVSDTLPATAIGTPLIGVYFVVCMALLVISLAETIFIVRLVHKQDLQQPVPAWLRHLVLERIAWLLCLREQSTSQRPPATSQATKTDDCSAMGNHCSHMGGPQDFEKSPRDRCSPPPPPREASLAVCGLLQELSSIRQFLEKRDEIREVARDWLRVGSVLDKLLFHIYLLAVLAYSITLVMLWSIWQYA
Procedure: as §1, §2, §3, §4

Kir2.1 = target: T5, Kir2.1 (Homo sapiens, UniProt P63252); assay: Ion channel panel (IonWorks Barracuda): Kir2.1; type: cell-based
T5 construct: host or cells: HEK293 or CHO
Procedure: as §1, §2, §3, §4

Kv1.1 = target: T6, Kv1.1 (Homo sapiens, UniProt Q09470); assay: cell-based; type: cell-based; conditions: 100% = no change, <100% = inhibition
T6 construct: host or cells: HEK293 or CHO
Procedure: as §1, §2, §3, §4

Kv1.2 = target: T7, Kv1.2 (Homo sapiens, UniProt P16389); assay: cell-based; type: cell-based; conditions: 100% = no change, <100% = inhibition
T7 construct: host or cells: HEK293 or CHO
Procedure: as §1, §2, §3, §4

Kv1.3 = target: T8, Kv1.3 (Homo sapiens, UniProt P22001); assay: cell-based; type: cell-based; conditions: for Kv1.3 inhibition: 0.2 or 20 μM, FIG. 2
T8 construct: host or cells: HEK293 or CHO
Procedure: as §1, §2, §3, §4

α4β2 = target: T9, α4β2 (Homo sapiens, UniProt P17787+P43681); assay: Ion channel panel (IonWorks Barracuda): α4β2; type: cell-based
T9 construct: host or cells: HEK293 or CHO
Procedure: as §1, §2, §3, §4

Cav2.2 = target: T10, Cav2.2 (Homo sapiens, UniProt Q00975); assay: cell-based
T10 construct: host or cells: HEK293 or CHO
Procedure: as §1, §2, §3, §4

Cav2.1 = target: T11, Cav2.1 (Homo sapiens, UniProt O00555); assay: cell-based
T11 construct: host or cells: HEK293 or CHO
Procedure: as §1, §2, §3, §4

Kv2.1 = target: T12, Kv2.1 (Homo sapiens, UniProt Q14721); assay: cell-based
T12 construct: host or cells: HEK293 or CHO
Procedure: as §1, §2, §3, §4

GABA = assay: Ion channel panel (IonWorks Barracuda): GABA; type: cell-based
Procedure: as §1, §2, §3, §4

TRPV1 = target: T13, TRPV1 (Homo sapiens, UniProt Q8NER1); assay: Ion channel panel (IonWorks Barracuda): TRPV1; type: cell-based
T13 construct: host or cells: HEK293 or CHO
Procedure: as §1, §2, §3, §4

TRPA1 = target: T14, TRPA1 (Homo sapiens, UniProt O75762); assay: Ion channel panel (IonWorks Barracuda): TRPA1; type: cell-based; conditions: 100% = no change, <100% = inhibition
T14 construct: host or cells: HEK293 or CHO
Procedure: as §1, §2, §3, §4

Nav1.5 = Nav1.5 (Homo sapiens, UniProt Q14524); assay: in vitro; conditions: 100% = no change; for Activity of Nav1.5 with peptide, expressed as a percentage of the reference compound: peptide at 0.2 μM; for Activity of Nav1.5 with peptide (percentage of the reference compound): peptide at 20 μM
Procedure: as §1, §2, §3, §4

hERG = hERG (Homo sapiens, UniProt Q12809); assay: in vitro; conditions: 100% = no change, <100% = inhibition
Procedure: as §1, §2, §3, §4

α3β4 = target: T15, α3β4 (Homo sapiens, UniProt P30926+P32297); assay: Ion channel panel (IonWorks Barracuda): α3β4; type: cell-based; conditions: 100% = no change, <100% = inhibition
T15 construct: host or cells: HEK293 or CHO
Procedure: as §1, §2, §3, §4

[1] = first of two Nav1.7 columns (probably TP1)
[2] = second of two Nav1.7 columns (probably TP2)
[3] = peptide at 0.2 μM, 100% = no change, <100% = inhibition
[4] = peptide at 20 μM, 100% = no change, <100% = inhibition
[5] = first of two Nav1.5 columns (probably TP1)
[6] = second of two Nav1.5 columns (probably TP2)

T11 sequence (P54289 25-1103): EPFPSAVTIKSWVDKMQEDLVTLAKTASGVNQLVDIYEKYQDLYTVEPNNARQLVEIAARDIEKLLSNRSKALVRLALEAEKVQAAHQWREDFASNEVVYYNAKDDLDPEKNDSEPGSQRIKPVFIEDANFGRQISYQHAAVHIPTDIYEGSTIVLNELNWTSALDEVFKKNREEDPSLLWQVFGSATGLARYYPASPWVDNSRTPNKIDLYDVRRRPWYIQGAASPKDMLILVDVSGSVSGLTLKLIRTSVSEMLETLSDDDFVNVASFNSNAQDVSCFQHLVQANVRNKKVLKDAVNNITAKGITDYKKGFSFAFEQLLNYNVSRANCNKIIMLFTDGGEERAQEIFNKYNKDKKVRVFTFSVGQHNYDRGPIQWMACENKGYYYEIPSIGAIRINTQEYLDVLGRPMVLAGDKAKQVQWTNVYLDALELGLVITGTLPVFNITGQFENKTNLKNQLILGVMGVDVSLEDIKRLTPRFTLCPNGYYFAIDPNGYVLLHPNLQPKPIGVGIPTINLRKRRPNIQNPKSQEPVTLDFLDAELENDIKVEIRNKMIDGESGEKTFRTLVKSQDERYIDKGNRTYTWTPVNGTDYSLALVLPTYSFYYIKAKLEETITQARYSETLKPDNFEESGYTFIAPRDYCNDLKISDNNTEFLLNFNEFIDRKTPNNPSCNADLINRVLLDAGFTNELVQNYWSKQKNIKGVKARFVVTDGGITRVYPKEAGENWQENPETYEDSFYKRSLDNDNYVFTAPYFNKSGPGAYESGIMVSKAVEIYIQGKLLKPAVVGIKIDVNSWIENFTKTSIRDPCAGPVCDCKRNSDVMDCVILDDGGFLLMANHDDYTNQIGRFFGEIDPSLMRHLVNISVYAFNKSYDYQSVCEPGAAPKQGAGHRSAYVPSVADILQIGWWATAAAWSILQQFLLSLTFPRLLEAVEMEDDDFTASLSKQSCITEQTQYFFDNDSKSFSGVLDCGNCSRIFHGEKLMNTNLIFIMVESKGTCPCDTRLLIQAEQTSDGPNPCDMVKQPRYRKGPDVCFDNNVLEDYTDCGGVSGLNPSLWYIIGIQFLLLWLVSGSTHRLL
T11 sequence (O00555 whole entry): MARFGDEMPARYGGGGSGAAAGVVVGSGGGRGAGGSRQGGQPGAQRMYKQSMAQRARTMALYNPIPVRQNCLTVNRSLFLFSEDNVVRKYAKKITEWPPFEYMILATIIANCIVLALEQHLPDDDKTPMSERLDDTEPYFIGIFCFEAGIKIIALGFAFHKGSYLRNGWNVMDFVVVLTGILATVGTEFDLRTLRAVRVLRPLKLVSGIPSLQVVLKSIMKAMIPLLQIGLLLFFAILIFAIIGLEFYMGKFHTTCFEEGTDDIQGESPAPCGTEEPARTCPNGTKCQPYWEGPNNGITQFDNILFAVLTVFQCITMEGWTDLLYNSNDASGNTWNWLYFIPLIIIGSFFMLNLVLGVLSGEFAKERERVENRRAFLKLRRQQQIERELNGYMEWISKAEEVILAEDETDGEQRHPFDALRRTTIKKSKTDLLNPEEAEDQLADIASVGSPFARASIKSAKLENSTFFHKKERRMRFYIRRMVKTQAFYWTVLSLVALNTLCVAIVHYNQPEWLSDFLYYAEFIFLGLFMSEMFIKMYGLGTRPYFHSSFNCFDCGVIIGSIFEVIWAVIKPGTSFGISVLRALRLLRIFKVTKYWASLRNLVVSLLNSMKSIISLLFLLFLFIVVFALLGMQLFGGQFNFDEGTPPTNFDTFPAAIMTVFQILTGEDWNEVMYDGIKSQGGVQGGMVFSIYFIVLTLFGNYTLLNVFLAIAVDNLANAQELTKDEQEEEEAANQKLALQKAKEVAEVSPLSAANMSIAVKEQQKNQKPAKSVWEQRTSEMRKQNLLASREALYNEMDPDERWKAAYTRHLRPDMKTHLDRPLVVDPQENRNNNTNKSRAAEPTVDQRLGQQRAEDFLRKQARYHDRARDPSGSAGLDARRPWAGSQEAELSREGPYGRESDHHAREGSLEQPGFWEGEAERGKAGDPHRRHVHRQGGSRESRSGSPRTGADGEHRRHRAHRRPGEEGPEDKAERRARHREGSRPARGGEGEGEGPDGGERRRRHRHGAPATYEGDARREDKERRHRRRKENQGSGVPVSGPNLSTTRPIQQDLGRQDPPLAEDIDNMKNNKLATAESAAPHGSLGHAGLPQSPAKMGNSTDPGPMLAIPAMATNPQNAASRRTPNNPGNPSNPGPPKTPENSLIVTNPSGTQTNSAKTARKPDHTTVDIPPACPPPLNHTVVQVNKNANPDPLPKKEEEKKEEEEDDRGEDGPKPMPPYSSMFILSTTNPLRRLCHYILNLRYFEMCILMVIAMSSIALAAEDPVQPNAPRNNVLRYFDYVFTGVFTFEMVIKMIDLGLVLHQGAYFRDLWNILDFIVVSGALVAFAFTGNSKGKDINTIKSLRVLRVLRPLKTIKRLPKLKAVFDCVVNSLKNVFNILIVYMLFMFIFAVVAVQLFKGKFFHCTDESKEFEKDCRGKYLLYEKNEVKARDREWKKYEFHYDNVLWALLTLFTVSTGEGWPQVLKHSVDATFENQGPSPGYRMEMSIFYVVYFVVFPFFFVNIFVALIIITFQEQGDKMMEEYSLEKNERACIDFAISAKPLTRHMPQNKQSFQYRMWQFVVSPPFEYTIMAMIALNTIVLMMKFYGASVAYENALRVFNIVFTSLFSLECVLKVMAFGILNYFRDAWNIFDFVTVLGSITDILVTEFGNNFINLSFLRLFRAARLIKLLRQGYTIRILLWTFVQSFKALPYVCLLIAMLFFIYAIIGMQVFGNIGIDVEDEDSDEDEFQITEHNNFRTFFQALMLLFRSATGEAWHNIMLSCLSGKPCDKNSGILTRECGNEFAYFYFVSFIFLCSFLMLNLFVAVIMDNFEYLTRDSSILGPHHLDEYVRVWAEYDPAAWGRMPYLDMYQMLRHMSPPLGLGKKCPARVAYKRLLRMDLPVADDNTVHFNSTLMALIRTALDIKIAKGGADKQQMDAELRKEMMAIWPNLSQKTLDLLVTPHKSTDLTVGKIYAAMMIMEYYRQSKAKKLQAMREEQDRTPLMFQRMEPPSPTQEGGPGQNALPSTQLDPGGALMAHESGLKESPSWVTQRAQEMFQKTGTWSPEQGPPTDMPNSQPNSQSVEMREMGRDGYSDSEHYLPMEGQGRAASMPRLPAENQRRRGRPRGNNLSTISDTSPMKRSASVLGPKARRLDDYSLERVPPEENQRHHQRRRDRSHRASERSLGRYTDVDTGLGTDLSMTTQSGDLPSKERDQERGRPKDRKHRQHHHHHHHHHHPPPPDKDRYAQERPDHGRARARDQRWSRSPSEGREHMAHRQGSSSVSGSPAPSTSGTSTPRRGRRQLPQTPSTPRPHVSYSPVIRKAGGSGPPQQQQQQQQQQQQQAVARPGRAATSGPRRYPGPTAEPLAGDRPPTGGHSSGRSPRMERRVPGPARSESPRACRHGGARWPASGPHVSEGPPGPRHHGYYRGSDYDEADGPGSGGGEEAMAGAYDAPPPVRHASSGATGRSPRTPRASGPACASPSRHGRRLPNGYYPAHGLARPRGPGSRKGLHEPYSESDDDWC
T13 sequence (Q8NER1 whole entry): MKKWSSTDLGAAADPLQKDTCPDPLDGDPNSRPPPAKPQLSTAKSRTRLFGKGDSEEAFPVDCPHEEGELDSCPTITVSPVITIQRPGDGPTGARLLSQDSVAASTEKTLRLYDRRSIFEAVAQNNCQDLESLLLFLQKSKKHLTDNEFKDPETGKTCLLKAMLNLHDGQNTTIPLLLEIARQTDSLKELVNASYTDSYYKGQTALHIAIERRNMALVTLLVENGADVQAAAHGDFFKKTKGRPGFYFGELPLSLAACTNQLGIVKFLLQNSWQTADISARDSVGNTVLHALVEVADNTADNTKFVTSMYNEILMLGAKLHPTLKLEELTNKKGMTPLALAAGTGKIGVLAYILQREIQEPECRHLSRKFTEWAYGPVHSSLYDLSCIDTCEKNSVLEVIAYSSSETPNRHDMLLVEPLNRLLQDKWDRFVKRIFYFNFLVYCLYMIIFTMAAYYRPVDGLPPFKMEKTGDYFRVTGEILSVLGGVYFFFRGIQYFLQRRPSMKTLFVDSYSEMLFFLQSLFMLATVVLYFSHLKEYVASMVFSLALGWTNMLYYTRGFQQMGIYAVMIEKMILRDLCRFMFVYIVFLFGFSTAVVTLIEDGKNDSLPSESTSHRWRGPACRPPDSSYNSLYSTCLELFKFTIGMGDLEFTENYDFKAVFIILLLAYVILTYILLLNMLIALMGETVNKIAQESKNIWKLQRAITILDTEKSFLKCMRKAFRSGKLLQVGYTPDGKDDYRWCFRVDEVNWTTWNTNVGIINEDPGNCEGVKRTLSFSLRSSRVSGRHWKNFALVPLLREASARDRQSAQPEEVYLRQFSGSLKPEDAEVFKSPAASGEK
T5 sequence (P63252 whole entry): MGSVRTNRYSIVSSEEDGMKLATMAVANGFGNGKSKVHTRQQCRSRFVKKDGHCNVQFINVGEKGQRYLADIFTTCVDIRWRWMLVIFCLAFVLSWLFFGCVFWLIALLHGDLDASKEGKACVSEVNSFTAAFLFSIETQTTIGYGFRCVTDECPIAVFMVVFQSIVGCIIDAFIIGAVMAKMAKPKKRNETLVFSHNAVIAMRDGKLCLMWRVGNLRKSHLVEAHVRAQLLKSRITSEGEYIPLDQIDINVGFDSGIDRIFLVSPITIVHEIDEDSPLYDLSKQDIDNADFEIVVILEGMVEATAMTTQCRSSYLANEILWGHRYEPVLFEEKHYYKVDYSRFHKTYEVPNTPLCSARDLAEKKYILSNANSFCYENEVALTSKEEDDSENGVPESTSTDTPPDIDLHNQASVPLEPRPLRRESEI

3 (GSSEKDCIKHLQRCRENKDCCSKKCSRRGTNPEKRCR) [compound 3]
Activity of NR2A with peptide, expressed as a percentage of the reference compound (NR2A; peptide at 0.2 μM): 97% | Activity of NR2A with peptide (percentage of the reference compound) (NR2A; peptide at 20 μM): 100% | Activity of NR2B with peptide, expressed as a percentage of the reference compound (NR2B; peptide at 0.2 μM): 93% | Activity of NR2B with peptide (percentage of the reference compound) (NR2B; peptide at 20 μM): 74% | Activity of Nav1.7 with peptide, expressed as a percentage of the reference compound (Nav1.7; [1]): 107% | Activity of Nav1.7 with peptide, expressed as a percentage of the reference compound (Nav1.7; [2]): 113% | Activity of Nav1.7 with peptide (percentage of the reference compound) (Nav1.7; [1]): 90% | Activity of Nav1.7 with peptide (percentage of the reference compound) (Nav1.7; [2]): 68% | Activity of 5HT3a with peptide (percentage of the reference compound) (5HT3a): 98% | Activity of 5HT3a with peptide, expressed as a percentage of the reference compound (5HT3a): 109% | Activity of Kir2.1 with peptide, expressed as a percentage of the reference compound (Kir2.1; [3]): 107% | Activity of Kir2.1 with peptide (percentage of the reference compound) (Kir2.1; [4]): 93% | Activity of Kv1.1 with peptide, expressed as a percentage of the reference compound (Kv1.1; peptide at 0.2 μM): 99% | Activity of Kv1.1 with peptide (percentage of the reference compound) (Kv1.1; peptide at 20 μM): 73% | Activity of Kv1.2 with peptide, expressed as a percentage of the reference compound (Kv1.2; peptide at 0.2 μM): 88% | Activity of Kv1.2 with peptide (percentage of the reference compound) (Kv1.2; peptide at 20 μM): 45% | Activity of Kv1.3 with peptide, expressed as a percentage of the reference compound (Kv1.3; [3]): 92% | Activity of Kv1.3 with peptide (percentage of the reference compound) (Kv1.3; [4]): 87% | Activity of a4b2 with peptide, expressed as a percentage of the reference compound (α4β2; [3]): 93% | Activity of a4b2 with peptide (percentage of the reference compound) (α4β2; [4]): 91% | Activity of Cav2.2 with peptide, expressed as a percentage of the reference compound (Cav2.2; [3]): 103% | Activity of Cav2.2 with peptide (percentage of the reference compound) (Cav2.2; [4]): 110% | Activity of Cav2.1 with peptide, expressed as a percentage of the reference compound (Cav2.1; [3]): 102% | Activity of Cav2.1 with peptide (percentage of the reference compound) (Cav2.1; [4]): 131% | Activity of Kv2.1 with peptide, expressed as a percentage of the reference compound (Kv2.1; [3]): 80% | Activity of Kv2.1 with peptide (percentage of the reference compound) (Kv2.1; [4]): 81% | Activity of GABA with peptide, expressed as a percentage of the reference compound (GABA; [3]): 77% | Activity of GABA with peptide (percentage of the reference compound) (GABA; [4]): 111% | Activity of TRPV1 with peptide, expressed as a percentage of the reference compound (TRPV1; [3]): 107% | Activity of TRPV1 with peptide (percentage of the reference compound) (TRPV1; [4]): 95% | Activity of TRPA1 with peptide, expressed as a percentage of the reference compound (TRPA1; peptide at 0.2 μM): 105% | Activity of TRPA1 with peptide (percentage of the reference compound) (TRPA1; peptide at 20 μM): 117% | Activity of Nav1.5 with peptide, expressed as a percentage of the reference compound (Nav1.5; [5]): 113% | Activity of Nav1.5 with peptide, expressed as a percentage of the reference compound (Nav1.5; [6]): 111% | Activity of Nav1.5 with peptide (percentage of the reference compound) (Nav1.5; [5]): 114% | Activity of Nav1.5 with peptide (percentage of the reference compound) (Nav1.5; [6]): 115% | Activity of hERG with peptide, expressed as a percentage of the reference compound (hERG; peptide at 0.2 μM): 121% | Activity of hERG with peptide (percentage of the reference compound) (hERG; peptide at 20 μM): 81% | Activity of a3b4 with peptide, expressed as a percentage of the reference compound (α3β4; peptide at 0.2 μM): 99% | Activity of a3b4 with peptide (percentage of the reference compound) (α3β4; peptide at 20 μM): 92%

CCN(CC)CC(=O)Nc1c(C)cccc1C [Lidocaine, reference compound]
IC50 (Nav1.7; IC50 of receptor/channel inhibition with reference compound): 465 µM and 285 µM

GSQFTDVKCTGSKQCWPVCKQMFGKPNGKCMNGKCRCYS [SEQ ID NO: 19]
Kv1.3 inhibition (Kv1.3): showed strong Kv1.3 inhibition

GSECLEIFKACNPSNDQCCKSSKLVCSRKTRWCKYQIG [SEQ ID NO: 31]
Activity against Nav1.7 channels (Nav1.7; 0.2 or 20 μM, FIG. 2): showed activity on tetrodotoxin-sensitive sodium channels (e.g., Nav1.7)

[Ba+2].[Cl-].[Cl-] [BaCl2, reference compound]
IC50 (Kir2.1; Kir2.1, read-out: IC50 of receptor/channel inhibition with reference compound): 5.25 µM

Picrotoxin [reference compound]
IC50 (GABA; GABA, read-out: IC50 of receptor/channel inhibition with reference compound): 1.72 µM

COc1ccc(CCN(C)CCCC(C#N)(c2ccc(OC)c(OC)c2)C(C)C)cc1OC (stereo not drawn) [Verapamil, reference compound]
IC50 (Kv2.1): 78 µM

GSGVPTDVKCRGSPQCIQPCKDAGMRFGKCMNGKCHCTPK [SEQ ID NO: 39]
Kv1.3 inhibition (Kv1.3): showed strong Kv1.3 inhibition

Oc1cc2c(cc1O)CN(C(=S)NCCc1ccc(Cl)cc1)CCC2 [Capsazepine, reference compound]
IC50 (TRPV1): 0.09 µM

CNC1(C)C2CCC(C2)C1(C)C (stereo not drawn) [Mecamylamine, reference compound]
IC50 (α4β2; α4β2, read-out: IC50 of receptor/channel inhibition with reference compound): 1.14 µM

COCC(=O)O[C@]1(CCN(C)CCCc2nc3ccccc3[nH]2)CCc2cc(F)ccc2[C@@H]1C(C)C [Mibefradil dihydrochloride, reference compound]
IC50 (Cav2.2; Cav2.2, read-out: IC50 of receptor/channel inhibition with reference compound): 8.28 µM | IC50 (Cav2.1; Cav2.1, read-out: IC50 of receptor/channel inhibition with reference compound): 2.12 µM
